Reference: PMC11417369, “DNA sequence and chromatin differentiate sequence-specific transcription factor binding in the human malaria parasite Plasmodium falciparum”

T1: AP2-HC D1 (Plasmodium falciparum, UniProt Q8IKR9 1316-1374)
T1 sequence: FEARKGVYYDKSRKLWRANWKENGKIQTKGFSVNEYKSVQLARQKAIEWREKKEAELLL

B1: CACACA_site1585 (dsDNA)
DNA 1: AAAATAAAAAAAAACACACACATACAAGCATATATA
DNA 2: TATATATGCTTGTATGTGTGTGTTTTTTTTTATTTT
B2: CACACA_site6991 (dsDNA)
DNA 1: ACAGAAAAAAGACACACACACATAATATACATACAT
DNA 2: ATGTATGTATATTATGTGTGTGTGTCTTTTTTCTGT
B3: CACACA_site4441 (dsDNA)
DNA 1: CAAATACCCGGACACACACACACAAAAAAAAAAAAA
DNA 2: TTTTTTTTTTTTTGTGTGTGTGTGTCCGGGTATTTG
B4: CACACA_site6495 (dsDNA)
DNA 1: TTAAACTTGAGACACACACACACACGGATATAAAAA
DNA 2: TTTTTATATCCGTGTGTGTGTGTGTCTCAAGTTTAA
B5: CACACA_site758 (dsDNA)
DNA 1: TTAAACTTGAAACACACACACACACCCATATAAAAA
DNA 2: TTTTTATATGGGTGTGTGTGTGTGTTTCAAGTTTAA
B6: CACACA_site4189 (dsDNA)
DNA 1: AAAAAAAACGGACACACACACATTCAATATAAAACA
DNA 2: TGTTTTATATTGAATGTGTGTGTGTCCGTTTTTTTT
B7: CACACA_site4909 (dsDNA)
DNA 1: AAAAAATCAAAACACACACACACACTAGAAAAAAAA
DNA 2: TTTTTTTTCTAGTGTGTGTGTGTGTTTTGATTTTTT
B8: CACACA_site1444 (dsDNA)
DNA 1: AAAAAATCAAAACACACACACACACCCAAAAAAAAA
DNA 2: TTTTTTTTTGGGTGTGTGTGTGTGTTTTGATTTTTT
B9: CACACA_site8023 (dsDNA)
DNA 1: CCTGAACACATACATACACACACACTAATAAAAAAA
DNA 2: TTTTTTTATTAGTGTGTGTGTATGTATGTGTTCAGG
B10: CACACA_site3497 (dsDNA)
DNA 1: AGCAAATACAAACACACACACACATATACATATATA
DNA 2: TATATATGTATATGTGTGTGTGTGTTTGTATTTGCT
B11: CACACA_site6301 (dsDNA)
DNA 1: CACACGCACAGACACACACACACACGGATATAAATA
DNA 2: TATTTATATCCGTGTGTGTGTGTGTCTGTGCGTGTG
B12: CACACA_site4551 (dsDNA)
DNA 1: AAAAAAAAAAAACACACACACACACTAGTACATACA
DNA 2: TGTATGTACTAGTGTGTGTGTGTGTTTTTTTTTTTT
B13: CACACA_site5780 (dsDNA)
DNA 1: ATAAATTAAAAACACACACACATCTGGATACCCCTA
DNA 2: TAGGGGTATCCAGATGTGTGTGTGTTTTTAATTTAT
B14: CACACA_site482 (dsDNA)
DNA 1: GAATAATCCAAACACACACACACACCCGAATAAATA
DNA 2: TATTTATTCGGGTGTGTGTGTGTGTTTGGATTATTC
B15: CACACA_site6216 (dsDNA)
DNA 1: AAAAAAAAAAGACACACACACACACGGAGATATATA
DNA 2: TATATATCTCCGTGTGTGTGTGTGTCTTTTTTTTTT
B16: CACACA_site8113 (dsDNA)
DNA 1: CACGCATACAGACACACACACACACCGATATATATA
DNA 2: TATATATATCGGTGTGTGTGTGTGTCTGTATGCGTG
B17: CACACA_site6643 (dsDNA)
DNA 1: AACATACACATATACACACACACATATATACCTATA
DNA 2: TATAGGTATATATGTGTGTGTGTATATGTGTATGTT
B18: CACACA_site2012 (dsDNA)
DNA 1: AATATGAACAGACACACACACACAAAAAAAAAAAAA
DNA 2: TTTTTTTTTTTTTGTGTGTGTGTGTCTGTTCATATT
B19: CACACA_site2857 (dsDNA)
DNA 1: AAAAAAAACAGACACACACACATACACATACATACA
DNA 2: TGTATGTATGTGTATGTGTGTGTGTCTGTTTTTTTT
B20: CACACA_site1505 (dsDNA)
DNA 1: TATATATATATATACACACACACAAAAAAAAAAAAA
DNA 2: TTTTTTTTTTTTTGTGTGTGTGTATATATATATATA
B21: CACACA_site6093 (dsDNA)
DNA 1: TATATAAATGGACACACACACACCTTATAATTATTA
DNA 2: TAATAATTATAAGGTGTGTGTGTGTCCATTTATATA
B22: CACACA_site6714 (dsDNA)
DNA 1: ATAATACACAAGCACACACACACACGGATATTTATA
DNA 2: TATAAATATCCGTGTGTGTGTGTGCTTGTGTATTAT
B23: CACACA_site1447 (dsDNA)
DNA 1: AAAAAAAAAAAACACACACACACACCCACAAAATAT
DNA 2: ATATTTTGTGGGTGTGTGTGTGTGTTTTTTTTTTTT
B24: CACACA_site6334 (dsDNA)
DNA 1: AAAAAAAAAAGACACACACACAAATACAAATACATA
DNA 2: TATGTATTTGTATTTGTGTGTGTGTCTTTTTTTTTT
B25: CACACA_site8770 (dsDNA)
DNA 1: AACAAACACAGACACACACACACACTAATATGATTA
DNA 2: TAATCATATTAGTGTGTGTGTGTGTCTGTGTTTGTT
B26: CACACA_site803 (dsDNA)
DNA 1: AAAAAAAACAAATACACACGCACACCGAAAAAAAAA
DNA 2: TTTTTTTTTCGGTGTGCGTGTGTATTTGTTTTTTTT
B27: CACACA_site270 (dsDNA)
DNA 1: AATACTTATTATGAAACACACACCAAAACTACATAA
DNA 2: TTATGTAGTTTTGGTGTGTGTTTCATAATAAGTATT
B28: CACACA_site4435 (dsDNA)
DNA 1: TACACAGACGGACACACACACACACTAGAAAAAAAA
DNA 2: TTTTTTTTCTAGTGTGTGTGTGTGTCCGTCTGTGTA
B29: CACACA_site3306 (dsDNA)
DNA 1: CAACATTTGAAACACACACACATACAAACAAACAAA
DNA 2: TTTGTTTGTTTGTATGTGTGTGTGTTTCAAATGTTG
B30: CACACA_site8718 (dsDNA)
DNA 1: ATAATTTGTGGACACACACACACACCGACATATATA
DNA 2: TATATATGTCGGTGTGTGTGTGTGTCCACAAATTAT
B31: CACACA_site4398 (dsDNA)
DNA 1: AGTATACTCAAACACACACACACAAAAAAAAAAAAA
DNA 2: TTTTTTTTTTTTTGTGTGTGTGTGTTTGAGTATACT
B32: CACACA_site1725 (dsDNA)
DNA 1: CATATATACGCATACACACACACACCCACACCCACA
DNA 2: TGTGGGTGTGGGTGTGTGTGTGTATGCGTATATATG
B33: CACACA_site5428 (dsDNA)
DNA 1: AAAAGATAATTATGCACACACACACCCAGACACAAC
DNA 2: GTTGTGTCTGGGTGTGTGTGTGCATAATTATCTTTT
B34: CACACA_site8823 (dsDNA)
DNA 1: TAATTATGCCAACACACACACACACCCAACTAAAAA
DNA 2: TTTTTAGTTGGGTGTGTGTGTGTGTTGGCATAATTA
B35: CACACA_site3056 (dsDNA)
DNA 1: AGCTCTTGTCATTTTGCACACACACCCGTATAGGTT
DNA 2: AACCTATACGGGTGTGTGTGCAAAATGACAAGAGCT
B36: CACACA_site903 (dsDNA)
DNA 1: CCATAAAAAGGATACACACACACACCCACATATATA
DNA 2: TATATATGTGGGTGTGTGTGTGTATCCTTTTTATGG
B37: CACACA_site2860 (dsDNA)
DNA 1: AAAAAAAAAAAAAACACACACACACCCATACACATA
DNA 2: TATGTGTATGGGTGTGTGTGTGTTTTTTTTTTTTTT
B38: CACACA_site6373 (dsDNA)
DNA 1: AACATACATAGACACACACACACACGCACACGCACA
DNA 2: TGTGCGTGTGCGTGTGTGTGTGTGTCTATGTATGTT
B39: CACACA_site7659 (dsDNA)
DNA 1: AGAATAAAAAGGAACACACACACACGCATATAAATA
DNA 2: TATTTATATGCGTGTGTGTGTGTTCCTTTTTATTCT
B40: CACACA_site118 (dsDNA)
DNA 1: ATATATATATATTACACACACACAAAAAAAATAAAG
DNA 2: CTTTATTTTTTTTGTGTGTGTGTAATATATATATAT
B41: CACACA_site8328 (dsDNA)
DNA 1: TTGGGTCAAACATAAACACACACAAAAAGAAAAAAT
DNA 2: ATTTTTTCTTTTTGTGTGTGTTTATGTTTGACCCAA
B42: CACACA_site904 (dsDNA)
DNA 1: ATAAAAAGGAAACACACACACACACCCATATATATA
DNA 2: TATATATATGGGTGTGTGTGTGTGTTTCCTTTTTAT
B43: CACACA_site4465 (dsDNA)
DNA 1: AAATAATATAAATACACACACACATATATAAATACA
DNA 2: TGTATTTATATATGTGTGTGTGTATTTATATTATTT
B44: CACACA_site5152 (dsDNA)
DNA 1: GTATAATATGAACACACACACACACCCAAAAAAAAA
DNA 2: TTTTTTTTTGGGTGTGTGTGTGTGTTCATATTATAC

The binders below were run against T1, AP2-HC D1 (assay: gcPBM; about 25 ug protein; PBS, 1% milk, 0.2 mg/ml BSA, salmon testes DNA, 0.03% Triton X-100). Details: tags: N-terminal GST (pGEX-4T-1), kept; label: surface-attached array probe.
In the case of B1, the binding signal is reported as 11.2 ln median PBM intensity, better of two orientations. With B2 the binding signal was 11.8 ln median PBM intensity, better of two orientations. B3 was tested, and the binding signal was 11.9 ln median PBM intensity, better of two orientations. For B4, the binding signal was 11.8 ln median PBM intensity, better of two orientations. With B5 the binding signal was 11.7 ln median PBM intensity, better of two orientations. For B6, the binding signal was 11.8 ln median PBM intensity, better of two orientations. With B7 the binding signal was 11.8 ln median PBM intensity, better of two orientations. B8 was tested, and the binding signal was 11.8 ln median PBM intensity, better of two orientations. For B9, the binding signal was 11.3 ln median PBM intensity, better of two orientations. For B10, the binding signal was 11.7 ln median PBM intensity, better of two orientations. For B11, the binding signal was 11.7 ln median PBM intensity, better of two orientations. With B12 the binding signal was 11.8 ln median PBM intensity, better of two orientations. B13 was tested, and the binding signal was 11.5 ln median PBM intensity, better of two orientations. In the case of B14, the binding signal is reported as 11.7 ln median PBM intensity, better of two orientations. With B15 the binding signal was 11.7 ln median PBM intensity, better of two orientations. B16 was tested, and the binding signal was 11.1 ln median PBM intensity, better of two orientations. For B17, the binding signal was 11.9 ln median PBM intensity, better of two orientations. For B18, the binding signal was 11.8 ln median PBM intensity, better of two orientations. With B19 the binding signal was 11.8 ln median PBM intensity, better of two orientations. B20 was tested, and the binding signal was 11.3 ln median PBM intensity, better of two orientations. For B21, the binding signal was 11.9 ln median PBM intensity, better of two orientations. B22 was tested, and the binding signal was 11.8 ln median PBM intensity, better of two orientations. B23 was tested, and the binding signal was 11.7 ln median PBM intensity, better of two orientations. B24 was tested, and the binding signal was 10.9 ln median PBM intensity, better of two orientations. In the case of B25, the binding signal is reported as 11.7 ln median PBM intensity, better of two orientations. With B26 the binding signal was 10.9 ln median PBM intensity, better of two orientations. With B27 the binding signal was 10.7 ln median PBM intensity, better of two orientations. B28 was tested, and the binding signal was 11.9 ln median PBM intensity, better of two orientations. B29 was tested, and the binding signal was 11.8 ln median PBM intensity, better of two orientations. In the case of B30, the binding signal is reported as 11.8 ln median PBM intensity, better of two orientations. B31 was tested, and the binding signal was 11.8 ln median PBM intensity, better of two orientations. For B32, the binding signal was 10.7 ln median PBM intensity, better of two orientations. For B33, the binding signal was 11.7 ln median PBM intensity, better of two orientations. In the case of B34, the binding signal is reported as 10.8 ln median PBM intensity, better of two orientations. B35 was tested, and the binding signal was 11 ln median PBM intensity, better of two orientations. B36 was tested, and the binding signal was 11.9 ln median PBM intensity, better of two orientations. With B37 the binding signal was 11.7 ln median PBM intensity, better of two orientations. With B38 the binding signal was 11 ln median PBM intensity, better of two orientations. In the case of B39, the binding signal is reported as 11.7 ln median PBM intensity, better of two orientations. In the case of B40, the binding signal is reported as 11.7 ln median PBM intensity, better of two orientations. In the case of B41, the binding signal is reported as 10.7 ln median PBM intensity, better of two orientations. In the case of B42, the binding signal is reported as 11.9 ln median PBM intensity, better of two orientations. With B43 the binding signal was 11.7 ln median PBM intensity, better of two orientations. B44 was tested, and the binding signal was 11.9 ln median PBM intensity, better of two orientations.
